The experiment is described as follows: OTA detoxification activity assay (specific activity, fluorescence reduction ex/em 390/450 nm). Format: biochemical. The conditions noted are these: for Specific OTA detoxification activities in % compared to the enzyme of SEQ ID NO: 1, pH 6.0 / Specific OTA detoxification activities in % compared to the enzyme of SEQ ID NO: 1, pH 7.5: SEQ ID NO: 1 = 100%. As for the experimental part: To determine the specific activity of recombinant target polypeptides produced e.g. as described in Example 2 above in units per liter (U/L), ochratoxin A (OTA) detoxification activity assays were performed. One unit is defined as the amount of enzyme necessary for degradation of 1 μmol or OTA in 1 min when using a starting OTA concentration of […].
OTA detoxification activity assays were set up in a final volume of the reaction mixture of […], containing the recombinant enzyme preparation (preferably diluted to yield a volumetric activity of 1-10 mU/L), and 200 ng/mL OTA in 100 mM sodium phosphate buffer.
Specific activities were determined at pH 6.0 and pH 7.5. As soon as all components of the reaction mixture were mixed, OTA degradation was followed at 37° C. on a fluorescence spectrophotometer (BioTek Synergy H1 MFD Multimode microplate reader) by following the reduction in fluorescence at ex/em 390 nm/450 nm. For work performed at pH 6.0 and 7.5, a 100 mM sodium phosphate buffer was used.
For calculation of the specific activity, the initial linear part of the recorded fluorescence reduction curve was used. In addition to the fluorescence-based method described above, OTA degradation was also determined by using the HPLC-MS method as described by Dellafiora et al. 2020, Toxins 12, 258, essentially confirming the fluorescence-based results. Genes encoding either of the indicated SEQ ID NOs are expressed as described herein and the specific activities for the obtained polypeptide preparation are exemplarily shown in Table 8. Analogously, enzymatic activities using either ochratoxin B, C or TA as substrate or can be found.

B1: I308V/V355L: variant of the enzyme of SEQ ID NO: 318 having the mutation combination I308V/V355L (protein)
chain: MTTRTRILTAFLSLLAANACAADAAPAAPHTVVLRAARMFDGASGKLVDHPQLTIVGNKIVRIAQGDKAEVPAGAEVVDLGDATLLPGFIDAHVHLSGQSSDNWYGDFFDNMMRFPAEQALYGAYYARITLEAGFTSVRDVGSTDWVALGLRNAIDAGKVPGPRMLVSNYAVGSTGGHADQDPIPPHKLPLAGPLQGVCNGPEECRAAVRYQIKYGANVIKFMPSGGVLSLSDPVDAPELSQDEMNAVIGESHAWGRKVAAHAHGDKAAKMAVAAGVDSIEHGSFIEDDTLRAMKAKNVYLVPTISAVAHVEEKIGTFPPVIAEKGRAAAAHLRQTFRHAVQIGVPIALGTDAGLGAHGSNAREFRYMVENGLTPAQALLAGTANAARLLGTFDRVGTLEAGKLADVVAVPGNPIADITVTERPLFVMKDGVVVRRDAVR
modifications: exemplary polypeptide
As for B1, the “% of the activity of the non-mutated enzyme of SEQ ID NO: 318 at pH 6” value is listed as 209% and the “% of the activity of the non-mutated enzyme of SEQ ID NO: 318 at pH 7.5” value is 189%.

B2: 161 (protein)
chain: MTTRTRILTAFLSLLAANACAADAAPAAPHTVVLRAARMFDGASGKLVDHPQLTIVGNKIVRIAQGDKAEVPAGAEVVDLGDATLLPGFIDAHVHLSGQSSDNWYGDFFDNMMRFPAEQALYGAYYARITLEAGFTSVRDVGSTDWVALGLRNAIDAGKVPGPRMLVSNYAVGSTGGHADQDPIPPHKLPLAGPLQGVCNGPEECRAAVRYQIKYGANVIKFMPSGGVLSLSDPVDAPELSQDEMNAVIGESHAWGRKVAAHAHGDKAAKMAVAAGVDSIEHGSFIEDDTLRAMKAKNVYLVPTISAAAHVEEKIGTFPPVIAEKGRAAAAHLRQTFRHAVQIGVPIALGTDAAVGAHGSNAREFRYMVENGLTPAQALLAGTANAARLLGTFDRVGTLEAGKLADVVAVPGNPIADITVTERPLFVMKDGVVVRRDAVR
modifications: exemplary polypeptide
As for B2, the “Specific OTA detoxification activities in % compared to the enzyme of SEQ ID NO: 1, pH 6.0” value was 132% and the “Specific OTA detoxification activities in % compared to the enzyme of SEQ ID NO: 1, pH 7.5” value was determined as 110%.

B3: 172 (protein)
chain: MTTRTRILTAFLSLLAANACAADAAPAAPHTVVLRAARMFDGASGKLVDHPQLTIVGNKIVRIAQGDKAEVPAGAEVVDLGDATLLPGFIDAHVHLSGQSSDNWYGDFFDNMMRFPAEQALYGAYYARITLEAGFTSVRDVGSTDWVALGLRNAIDAGKVPGPRMLVSNYPVGSTGGHADQDPIPPHKLPLAGPLQGVCNGPEECRAAVRYQIKYGANVIKFMPSGGVLSLSDPVDAPELSQDEMNAVIGESHAWGRKVAAHAHGDKAAKMAVAAGVDSIEHGSFIEDDTLRAMKAKNVYLVPTISAIAHVEEKIGTYPPVIAEKGRAAAAHLRQTFRHAVQIGVPIALGTDAAVGAHGSNAREFRYMVENGLTPAQALLAGTANAARLLGTFDRVGTLEAGKLADVVAVPGNPIADITVTERPLFVMKDGVVVRRDAVR
modifications: exemplary polypeptide
Take B3: the “Specific OTA detoxification activities in % compared to the enzyme of SEQ ID NO: 1, pH 6.0” value amounted to 62% and the “Specific OTA detoxification activities in % compared to the enzyme of SEQ ID NO: 1, pH 7.5” value was 70%.

B4: 176 (protein)
chain: MTTRTRILTAFLSLLAANACAADAAPAAPHTVVLRAARMFDGASGKLVDHPQLTIVGNKIVRIAQGDKAEVPAGAEVVDLGDATLLPGFIDAHVHLSGQSSDNWYGDFFDNMMRFPAEQALYGAYYARITLEAGFTSVRDVGSTDWVALGLRNAIDAGKVPGPRMLVSNYAVGSTGGHADQDPVPPHKLPLAGPLQGVCNGPEECRAAVRYQIKYGANVIKFMPSGGVLSLSDPVDAPELSQDEMNAVIGESHAWGRKVAAHAHGDKAAKMAVAAGVDSIEHGSFIEDDTLRAMKAKNVYLVPTISAVAHVEEKIGTFPPVIAEKGRAAAAHLRQTFRHAVQIGVPIALGTDAAVGAHGSNAREFRYMVENGLTPAQALLAGTANAARLLGTFDRVGTLEAGKLADVVAVPGNPIADITVTERPLFVMKDGVVVRRDAVR
modifications: exemplary polypeptide
As to B4, the “Specific OTA detoxification activities in % compared to the enzyme of SEQ ID NO: 1, pH 6.0” value stood at 112% and the “Specific OTA detoxification activities in % compared to the enzyme of SEQ ID NO: 1, pH 7.5” value came out at 95%.

B5: 185 (protein)
chain: MTTRTRILTAFLSLLAANACAADAAPAAPHTVVLRAARMFDGASGKLVDHPQLTIVGNKIVRIAQGDKAEVPAGAEVVDLGDATLLPGFIDAHVHLSGQSSDNWYGDFFDNMMRFPAEQALYGAYYARITLEAGFTSVRDVGSTDWVALGLRNAIDAGKVPGPRMLVSNYAVGSTGGHADQDPIPPHKLPLAGPLQGVCNGPEECRAAVRYQIKYGANVIKFMPSGGVLSLSDPVDAPELSQDEMNAVIGESHAWGRKVAAHAHGDKAAKMAVAAGVDSIEHGSFIEDDTLRAMKAKNVYLVPTISAIAHVEEKIGTFPPVIAEKGRAAVAHLRQTFRHAVQIGVPIALGTDAGVGAHGSNAREFRYMVENGLTPAQALLAGTANAARLLGTFDRVGTLEAGKLADVVAVPGNPIADITVTERPLFVMKDGVVVRRDAVR
modifications: exemplary polypeptide
In the case of B5, the “Specific OTA detoxification activities in % compared to the enzyme of SEQ ID NO: 1, pH 6.0” value came to 32% and the “Specific OTA detoxification activities in % compared to the enzyme of SEQ ID NO: 1, pH 7.5” value amounted to 18%.

B6: 170 (protein)
chain: MTTRTRILTAFLSLLAANACAADAAPAAPHTVVLRAARMFDGASGKLVDHPQLTIVGNKIVRIAQGDKAEVPAGAEVVDLGDATLLPGFIDAHVHLSGQSSDNWYGDFFDNMMRFPAEQALYGAYYARITLEAGFTSVRDVGSTDWVALGLRNAIDAGKVPGPRMLVSNYPVGSTGGHADQDPIPPHKLPLAGPLQGVCNGPEECRAAVRYQIKYGANVIKFMPSGGVLSLSDPVDAPELSQDEMNAVIGESHAWGRKVAAHAHGDKAAKMAVAAGVDSIEHGSFIEDDTLRAMKAKNVYLVPTISAAAHVEEKIGTFPPVIAEKGRAAAAHLRQTFRHAVQIGVPIALGTDAAVGAHGSNAREFRYMVENGLTPAQALLAGTANAARLLGTFDRVGTLEAGKLADVVAVPGNPIADITVTERPLFVMKDGVVVRRDAVR
modifications: exemplary polypeptide
For B6, the “Specific OTA detoxification activities in % compared to the enzyme of SEQ ID NO: 1, pH 6.0” value stood at 49% and the “Specific OTA detoxification activities in % compared to the enzyme of SEQ ID NO: 1, pH 7.5” value is on record as 32%.

B7: 171 (protein)
chain: MTTRTRILTAFLSLLAANACAADAAPAAPHTVVLRAARMFDGASGKLVDHPQLTIVGNKIVRIAQGDKAEVPAGAEVVDLGDATLLPGFIDAHVHLSGQSSDNWYGDFFDNMMRFPAEQALYGAYYARITLEAGFTSVRDVGSTDWVALGLRNAIDAGKVPGPRMLVSNYPVGSTGGHADQDPIPPHKLPLAGPLQGVCNGPEECRAAVRYQIKYGANVIKFMPSGGVLSLSDPVDAPELSQDEMNAVIGESHAWGRKVAAHAHGDKAAKMAVAAGVDSIEHGSFIEDDTLRAMKAKNVYLVPTISAVAHVEEKIGTFPPVIAEKGRAAAAHLRQTFRHAVQIGVPIALGTDAAVGAHGSNAREFRYMVENGLTPAQALLAGTANAARLLGTFDRVGTLEAGKLADVVAVPGNPIADITVTERPLFVMKDGVVVRRDAVR
modifications: exemplary polypeptide
For the molecule B7, the “Specific OTA detoxification activities in % compared to the enzyme of SEQ ID NO: 1, pH 6.0” value came to 69% and the “Specific OTA detoxification activities in % compared to the enzyme of SEQ ID NO: 1, pH 7.5” value is recorded as 37%.

B8: F318Y/V355L: variant of the enzyme of SEQ ID NO: 318 having the mutation combination F318Y/V355L (protein)
chain: MTTRTRILTAFLSLLAANACAADAAPAAPHTVVLRAARMFDGASGKLVDHPQLTIVGNKIVRIAQGDKAEVPAGAEVVDLGDATLLPGFIDAHVHLSGQSSDNWYGDFFDNMMRFPAEQALYGAYYARITLEAGFTSVRDVGSTDWVALGLRNAIDAGKVPGPRMLVSNYAVGSTGGHADQDPIPPHKLPLAGPLQGVCNGPEECRAAVRYQIKYGANVIKFMPSGGVLSLSDPVDAPELSQDEMNAVIGESHAWGRKVAAHAHGDKAAKMAVAAGVDSIEHGSFIEDDTLRAMKAKNVYLVPTISAIAHVEEKIGTYPPVIAEKGRAAAAHLRQTFRHAVQIGVPIALGTDAGLGAHGSNAREFRYMVENGLTPAQALLAGTANAARLLGTFDRVGTLEAGKLADVVAVPGNPIADITVTERPLFVMKDGVVVRRDAVR
modifications: exemplary polypeptide
Consider B8, for which the “% of the activity of the non-mutated enzyme of SEQ ID NO: 318 at pH 6” value came out at 197% and the “% of the activity of the non-mutated enzyme of SEQ ID NO: 318 at pH 7.5” value worked out at 138%.

B9: 178 (protein)
chain: MTTRTRILTAFLSLLAANACAADAAPAAPHTVVLRAARMFDGASGKLVDHPQLTIVGNKIVRIAQGDKAEVPAGAEVVDLGDATLLPGFIDAHVHLSGQSSDNWYGDFFDNMMRFPAEQALYGAYYARITLEAGFTSVRDVGSTDWVALGLRNAIDAGKVPGPRMLVSNYAVGSTGGHADQDPIPPHKLPLAGPLQGVCNGPEECRAAVRYQIKYGANVIKFMPSGGVLSLSDPVDAPELSQDEMNAVIGESHAWGRKVAAHAHGDKAAKMAVAAGVDSIEHGSFIEDDTLRAMKAKNVYLVPTISAAAHVEEKIGTYPPVIAEKGRAAAAHLRQTFRHAVQIGVPIALGTDAAVGAHGSNAREFRYMVENGLTPAQALLAGTANAARLLGTFDRVGTLEAGKLADVVAVPGNPIADITVTERPLFVMKDGVVVRRDAVR
modifications: exemplary polypeptide
For B9, the “Specific OTA detoxification activities in % compared to the enzyme of SEQ ID NO: 1, pH 6.0” value was determined as 85% and the “Specific OTA detoxification activities in % compared to the enzyme of SEQ ID NO: 1, pH 7.5” value was 88%.

The record behind these values is patent US20240352438A1, “MEANS AND METHODS FOR DETOXIFYING OCHRATOXIN A” (DSM Austria GmbH, priority 2021, published 2024).
